Test results taken from patent US20230365662A1.
Changes are numbered by the printed parent chain. Numbers in names are those of the source. Where “and” joins values, the source holds several entries; their conditions need not be identical. Equal values may be shown once.

B1: KB001 mouse Fab VL A25P (Fab, V domains shown)
VH: EVQLKQSGPGLVAPSQSLSITCTVSGFSLSIYSVHWVRQPPGKGLEWLGMIWGGGSSDYNSALKSRLSISKDNSKSQVFLKMNSLQTDDTAMYYCARNGNFYAMDYWGQGTSVTVSS
VL: QIVLTQSPAIMSASLGERVTMTCTPSSSVSSSFLHWYQQKPGSSPQLWIYSTSNLASGVPARFSGSGSGTSYSLTISSMEAEDAATYYCHQYHHSPYIYTFGGGTKLEIK
B2: KB001 mouse Fab VL F33H (Fab, V domains shown)
VH: B1 VH
VL: B1 VL with P25A, F33H
B3: KB001 mouse Fab VL S32Q (Fab, V domains shown)
VH: B1 VH
VL: B1 VL with P25A, S32Q
B4: KB001 mouse Fab VL S30R (Fab, V domains shown)
VH: B1 VH
VL: B1 VL with P25A, S30R
B5: KB001 mouse Fab VL S31W (Fab, V domains shown)
VH: B1 VH
VL: B1 VL with P25A, S31W
B6: KB001 mouse Fab VL S30H (Fab, V domains shown)
VH: B1 VH
VL: B1 VL with P25A, S30H
B7: KB001 mouse Fab VL S30K (Fab, V domains shown)
VH: B1 VH
VL: B1 VL with P25A, S30K
B8: KB001 mouse Fab VL S27W (Fab, V domains shown)
VH: B1 VH
VL: B1 VL with P25A, S27W
B9: KB001 mouse Fab VL S32P (Fab, V domains shown)
VH: B1 VH
VL: B1 VL with P25A, S32P
B10: KB001 mouse Fab VL S27V (Fab, V domains shown)
VH: B1 VH
VL: B1 VL with P25A, S27V
B11: KB001 mouse Fab VL S27L (Fab, V domains shown)
VH: B1 VH
VL: B1 VL with P25A, S27L
B12: KB001 mouse Fab VL S30T (Fab, V domains shown)
VH: B1 VH
VL: B1 VL with P25A, S30T
B13: KB001 mouse Fab VL S28H (Fab, V domains shown)
VH: B1 VH
VL: B1 VL with P25A, S28H
B14: KB001 mouse Fab VL S30I (Fab, V domains shown)
VH: B1 VH
VL: B1 VL with P25A, S30I
B15: KB001 mouse Fab VL S30L (Fab, V domains shown)
VH: B1 VH
VL: B1 VL with P25A, S30L
B16: KB001 mouse Fab VL S26P (Fab, V domains shown)
VH: B1 VH
VL: B1 VL with P25A, S26P
B17: KB001 mouse Fab VL S30W (Fab, V domains shown)
VH: B1 VH
VL: B1 VL with P25A, S30W
B18: KB001 mouse Fab VL S28N (Fab, V domains shown)
VH: B1 VH
VL: B1 VL with P25A, S28N
B19: KB001 mouse Fab VL S27K/S68Y (Fab, V domains shown)
VH: B1 VH
VL: B1 VL with P25A, S27K, S68Y
B20: KB001 mouse Fab VL S27H (Fab, V domains shown)
VH: B1 VH
VL: B1 VL with P25A, S27H
B21: KB001 mouse Fab VL F33N (Fab, V domains shown)
VH: B1 VH
VL: B1 VL with P25A, F33N
B22: KB001 mouse Fab VL A25V (Fab, V domains shown)
VH: B1 VH
VL: B1 VL with P25V
B23: KB001 mouse Fab VL S26T (Fab, V domains shown)
VH: B1 VH
VL: B1 VL with P25A, S26T
B24: KB001 mouse Fab VL S31D (Fab, V domains shown)
VH: B1 VH
VL: B1 VL with P25A, S31D
B25: KB001 mouse Fab VL S30D (Fab, V domains shown)
VH: B1 VH
VL: B1 VL with P25A, S30D
B26: KB001 mouse Fab VL S27N (Fab, V domains shown)
VH: B1 VH
VL: B1 VL with P25A, S27N
B27: KB001 mouse Fab VL A25E (Fab, V domains shown)
VH: B1 VH
VL: B1 VL with P25E
B28: KB001 mouse Fab VL S32G (Fab, V domains shown)
VH: B1 VH
VL: B1 VL with P25A, S32G
B29: KB001 mouse Fab VL S26G (Fab, V domains shown)
VH: B1 VH
VL: B1 VL with P25A, S26G
B30: KB001 mouse Fab VL V29I (Fab, V domains shown)
VH: B1 VH
VL: B1 VL with P25A, V29I
B31: KB001 mouse Fab VL S32Y (Fab, V domains shown)
VH: B1 VH
VL: B1 VL with P25A, S32Y
B32: KB001 mouse Fab VL S32A (Fab, V domains shown)
VH: B1 VH
VL: B1 VL with P25A, S32A
B33: KB001 mouse Fab VL S31Q (Fab, V domains shown)
VH: B1 VH
VL: B1 VL with P25A, S31Q
B34: KB001 mouse Fab VL S32W (Fab, V domains shown)
VH: B1 VH
VL: B1 VL with P25A, S32W
B35: KB001 mouse Fab VL S27M (Fab, V domains shown)
VH: B1 VH
VL: B1 VL with P25A, S27M
B36: KB001 mouse Fab VL S28D (Fab, V domains shown)
VH: B1 VH
VL: B1 VL with P25A, S28D
B37: KB001 mouse Fab VL V29L (Fab, V domains shown)
VH: B1 VH
VL: B1 VL with P25A, V29L
B38: KB001 mouse Fab VL S28M (Fab, V domains shown)
VH: B1 VH
VL: B1 VL with P25A, S28M
B39: KB001 mouse Fab VL S27Y (Fab, V domains shown)
VH: B1 VH
VL: B1 VL with P25A, S27Y
B40: KB001 mouse Fab VL S28T/S12R (Fab, V domains shown)
VH: B1 VH
VL: B1 VL with S12R, P25A, S28T
B41: KB001 mouse Fab VL S30E (Fab, V domains shown)
VH: B1 VH
VL: B1 VL with P25A, S30E
B42: KB001 mouse Fab VL S30M (Fab, V domains shown)
VH: B1 VH
VL: B1 VL with P25A, S30M

Each binder was assayed against HRgpA-6H (Porphyromonas gingivalis) (UniProt P28784) (assay: ELISA, FASEBA Fab on coated HRgpA-6H).
UniProt P28784, sequence (P28784 228-991): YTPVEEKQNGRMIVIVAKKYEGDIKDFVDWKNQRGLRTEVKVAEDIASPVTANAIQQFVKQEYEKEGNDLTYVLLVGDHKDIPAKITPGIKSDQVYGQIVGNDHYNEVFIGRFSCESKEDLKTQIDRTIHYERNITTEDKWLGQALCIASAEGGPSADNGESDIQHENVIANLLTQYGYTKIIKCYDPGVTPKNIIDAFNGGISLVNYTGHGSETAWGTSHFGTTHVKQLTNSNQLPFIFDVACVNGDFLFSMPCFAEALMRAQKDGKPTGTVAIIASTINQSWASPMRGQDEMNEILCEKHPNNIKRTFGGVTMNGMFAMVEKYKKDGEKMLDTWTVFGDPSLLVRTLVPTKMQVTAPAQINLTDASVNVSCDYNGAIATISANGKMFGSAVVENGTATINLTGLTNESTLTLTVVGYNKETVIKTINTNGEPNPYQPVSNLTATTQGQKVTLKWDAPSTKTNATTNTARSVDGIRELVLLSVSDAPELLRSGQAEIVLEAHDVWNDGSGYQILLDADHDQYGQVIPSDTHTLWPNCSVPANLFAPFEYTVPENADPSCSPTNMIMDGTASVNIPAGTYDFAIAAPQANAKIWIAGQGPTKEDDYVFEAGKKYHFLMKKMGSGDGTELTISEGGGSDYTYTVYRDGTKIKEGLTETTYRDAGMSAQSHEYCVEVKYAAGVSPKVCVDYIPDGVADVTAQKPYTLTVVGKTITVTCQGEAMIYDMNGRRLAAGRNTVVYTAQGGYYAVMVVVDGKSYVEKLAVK

With B1 as the binder, how does the OD450nm read?
The OD450nm was 0.742 and 0.766 and 0.749.

What about the Ratio OD(Variant)/OD(WT) of the same binder?
Its Ratio OD(Variant)/OD(WT) is 0.948 and 0.978 and 0.957.

For B2, which OD450nm is on record?
The OD450nm was 0.736.

What about the Ratio OD(Variant)/OD(WT) of the same binder?
Its Ratio OD(Variant)/OD(WT) is 0.971.

B3 was tested. Which OD450nm did it give?
Its OD450nm is 0.716.

And the Ratio OD(Variant)/OD(WT)?
The Ratio OD(Variant)/OD(WT) was 0.847.

How did the OD450nm turn out when B4 was run?
The OD450nm was 0.778 and 0.793 and 0.802.

And the Ratio OD(Variant)/OD(WT)?
Its Ratio OD(Variant)/OD(WT) is 0.903 and 0.92 and 0.93.

Which results are given for B5?
OD450nm: 0.808; Ratio OD(Variant)/OD(WT): 0.956

Which OD450nm does the source give for B6 here?
The OD450nm was 0.808 and 0.747.

And the Ratio OD(Variant)/OD(WT)?
Its Ratio OD(Variant)/OD(WT) is 0.937 and 0.867.

With B7 as the binder, how does the OD450nm read?
The OD450nm was 0.77.

What about the Ratio OD(Variant)/OD(WT) of the same binder?
Its Ratio OD(Variant)/OD(WT) is 0.893.

What does the source list for B8?
OD450nm: 0.601; Ratio OD(Variant)/OD(WT): 0.801

B9 was tested. Which OD450nm did it give?
The OD450nm was 0.744.

And the Ratio OD(Variant)/OD(WT)?
Its Ratio OD(Variant)/OD(WT) is 0.88.

B10 was tested. Which OD450nm did it give?
The OD450nm was 0.645 and 0.646.

And the Ratio OD(Variant)/OD(WT)?
Its Ratio OD(Variant)/OD(WT) is 0.859 and 0.861.

How did the OD450nm turn out when B11 was run?
Its OD450nm is 0.649.

What about the Ratio OD(Variant)/OD(WT) of the same binder?
Its Ratio OD(Variant)/OD(WT) is 0.865.

B12 was tested. Which OD450nm did it give?
Its OD450nm is 0.838 and 0.817.

And the Ratio OD(Variant)/OD(WT)?
Its Ratio OD(Variant)/OD(WT) is 0.972 and 0.948.

For B13, which OD450nm is on record?
Its OD450nm is 0.719.

What about the Ratio OD(Variant)/OD(WT) of the same binder?
The Ratio OD(Variant)/OD(WT) was 0.958.

What does the source list for B14?
OD450nm: 0.86; Ratio OD(Variant)/OD(WT): 0.998

How did the OD450nm turn out when B15 was run?
Its OD450nm is 0.813.

And the Ratio OD(Variant)/OD(WT)?
Its Ratio OD(Variant)/OD(WT) is 0.943.

What does the source list for B16?
OD450nm: 0.644 and 0.677; Ratio OD(Variant)/OD(WT): 0.822 and 0.865

What does the source list for B17?
OD450nm: 0.823; Ratio OD(Variant)/OD(WT): 0.955

Which OD450nm does the source give for B18 here?
The OD450nm was 0.743.

What about the Ratio OD(Variant)/OD(WT) of the same binder?
The Ratio OD(Variant)/OD(WT) was 0.99.

With B19 as the binder, how does the OD450nm read?
The OD450nm was 0.736.

And the Ratio OD(Variant)/OD(WT)?
Its Ratio OD(Variant)/OD(WT) is 0.981.

B20 was tested. Which OD450nm did it give?
The OD450nm was 0.664 and 0.63 and 0.726.

What about the Ratio OD(Variant)/OD(WT) of the same binder?
The Ratio OD(Variant)/OD(WT) was 0.885 and 0.839 and 0.967.

For B21, which OD450nm is on record?
Its OD450nm is 0.64.

And the Ratio OD(Variant)/OD(WT)?
Its Ratio OD(Variant)/OD(WT) is 0.844.

How did the OD450nm turn out when B22 was run?
Its OD450nm is 0.768.

What about the Ratio OD(Variant)/OD(WT) of the same binder?
Its Ratio OD(Variant)/OD(WT) is 0.981.

Which results are given for B23?
OD450nm: 0.761; Ratio OD(Variant)/OD(WT): 0.972

What does the source list for B24?
OD450nm: 0.762; Ratio OD(Variant)/OD(WT): 0.902

Which OD450nm does the source give for B25 here?
Its OD450nm is 0.702 and 0.723.

And the Ratio OD(Variant)/OD(WT)?
Its Ratio OD(Variant)/OD(WT) is 0.814 and 0.839.

Which results are given for B26?
OD450nm: 0.675 and 0.724 and 0.64; Ratio OD(Variant)/OD(WT): 0.899 and 0.965 and 0.853

How did the OD450nm turn out when B27 was run?
The OD450nm was 0.655.

What about the Ratio OD(Variant)/OD(WT) of the same binder?
The Ratio OD(Variant)/OD(WT) was 0.837.

What does the source list for B28?
OD450nm: 0.759; Ratio OD(Variant)/OD(WT): 0.898

For B29, which OD450nm is on record?
The OD450nm was 0.73.

What about the Ratio OD(Variant)/OD(WT) of the same binder?
Its Ratio OD(Variant)/OD(WT) is 0.932.

B30 was tested. Which OD450nm did it give?
The OD450nm was 0.853.

And the Ratio OD(Variant)/OD(WT)?
Its Ratio OD(Variant)/OD(WT) is 0.99.

For B31, which OD450nm is on record?
Its OD450nm is 0.753.

What about the Ratio OD(Variant)/OD(WT) of the same binder?
The Ratio OD(Variant)/OD(WT) was 0.891.

Which OD450nm does the source give for B32 here?
The OD450nm was 0.748 and 0.805.

And the Ratio OD(Variant)/OD(WT)?
The Ratio OD(Variant)/OD(WT) was 0.885 and 0.953.

How did the OD450nm turn out when B33 was run?
Its OD450nm is 0.83 and 0.745 and 0.782.

What about the Ratio OD(Variant)/OD(WT) of the same binder?
Its Ratio OD(Variant)/OD(WT) is 0.982 and 0.882 and 0.925.

B34 was tested. Which OD450nm did it give?
The OD450nm was 0.649.

What about the Ratio OD(Variant)/OD(WT) of the same binder?
Its Ratio OD(Variant)/OD(WT) is 0.856.

Which OD450nm does the source give for B35 here?
Its OD450nm is 0.709.

And the Ratio OD(Variant)/OD(WT)?
Its Ratio OD(Variant)/OD(WT) is 0.945.

For B36, which OD450nm is on record?
Its OD450nm is 0.745 and 0.722.

And the Ratio OD(Variant)/OD(WT)?
The Ratio OD(Variant)/OD(WT) was 0.993 and 0.962.

With B37 as the binder, how does the OD450nm read?
The OD450nm was 0.751.

What about the Ratio OD(Variant)/OD(WT) of the same binder?
Its Ratio OD(Variant)/OD(WT) is 0.871.

B38 was tested. Which OD450nm did it give?
The OD450nm was 0.706 and 0.675.

What about the Ratio OD(Variant)/OD(WT) of the same binder?
Its Ratio OD(Variant)/OD(WT) is 0.941 and 0.899.

Which results are given for B39?
OD450nm: 0.617; Ratio OD(Variant)/OD(WT): 0.822

Which OD450nm does the source give for B40 here?
The OD450nm was 0.747.

What about the Ratio OD(Variant)/OD(WT) of the same binder?
The Ratio OD(Variant)/OD(WT) was 0.995.

Which OD450nm does the source give for B41 here?
Its OD450nm is 0.813.

What about the Ratio OD(Variant)/OD(WT) of the same binder?
The Ratio OD(Variant)/OD(WT) was 0.943.

How did the OD450nm turn out when B42 was run?
Its OD450nm is 0.818.

What about the Ratio OD(Variant)/OD(WT) of the same binder?
Its Ratio OD(Variant)/OD(WT) is 0.949.
